Measured values as given in FireProtDB (doi:10.1021/bi990893b).

Conditions: Bos taurus; pH 7; Thermal; Absorbance; Sodium phosphate 100 mM; whole UniProt chain shown

B1: Cytochrome b5 wild type, P00171 (protein)
chain: MAEESSKAVKYYTLEEIQKHNNSKSTWLILHYKVYDLTKFLEEHPGGEEVLREQAGGDATENFEDVGHSTDARELSKTFIIGELHPDDRSKITKPSESIITTIDSNPSWWTNWLIPAISALFVALIYHLYTSEN
Tm: 67.2 °C
unfolding enthalpy (van 't Hoff): 95.1 kcal/mol
